Results published in the supplement of paper PMC10724198.
± gives the standard deviation of the averaged measurements.

Key:
Saccharomyces cerevisiae [1] = assay: protein stability index of tFT-peptide fusion (C-terminal peptide) (PSI (0-1 scale)); higher = more stable (slower turnover)
Protocol: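 MPS profiling in S. cerevisiae of the tFT-X12 degron library: putative degron peptides plus stable controls, 12 aa, fused to the C-terminus of a sfGFP-mCherry timer. Cells are FACS-sorted into 8 mCherry/sfGFP bins and deep-sequenced. PSI runs from 0 (unstable) to 1 (stable). Backgrounds are wild type, das1Δ and doa10Δ at 30 °C, and wild type, das1Δ, cdc34-1 and cdc53-1 at 37 °C; 2-3 technical replicates each.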

Saccharomyces cerevisiae [2] = assay: as above; details: genetic background: wild type; temperature: 30 C
[3] = genetic background: cdc34-1, temperature: 37 C
[4] = genetic background: cdc53-1, temperature: 37 C
[5] = genetic background: das1 deletion, temperature: 30 C
[6] = genetic background: das1 deletion, temperature: 37 C
[7] = genetic background: doa10 deletion, temperature: 30 C
[8] = genetic background: wild type, temperature: 30 C
[9] = genetic background: wild type, temperature: 37 C
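Further: PSI is a weighted mean of sequencing reads over stability bins, variants kept only with over 10 reads, mCherry proximal and sfGFP distal, peptide attached via GGGS linker.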

Sequence | protein stability index (Saccharomyces cerevisiae [1]; [3]) | protein stability index (Saccharomyces cerevisiae [1]; [4]) | protein stability index (Saccharomyces cerevisiae [1]; [5]) | protein stability index (Saccharomyces cerevisiae [1]; [6]) | protein stability index (Saccharomyces cerevisiae [1]; [7]) | protein stability index (Saccharomyces cerevisiae [1]; [8]) | protein stability index (Saccharomyces cerevisiae [1]; [9]) | protein stability index (Saccharomyces cerevisiae [2])
SVFWCFHVLFWS | 0.425 ± 0.039 | 0.4971 ± 0.0027 | 0.395 ± 0.025 | 0.5448 ± 0.0013 | 0.327 ± 0.011 | 0.345 ± 0.022 | 0.4926 ± 0.0049 | 0.39 ± 0.0011
SVLCLFSRLRSV | 0.625 ± 0.022 | 0.7308 ± 0.0022 | 0.638 ± 0.015 | 0.736 ± 0.0017 | 0.17 ± 0.0041 | 0.19 ± 0.032 | 0.383 ± 0.011 | 0.354 ± 0.069
SVPIAFYLLFFQ | 0.557 ± 0.0081 | 0.605 ± 0.027 | 0.458 ± 0.021 | 0.648 ± 0.013 | 0.434 ± 0.013 | 0.456 ± 0.016 | 0.575 ± 0.016 | 0.464 ± 0.021
SVSQTSILDSRL | 0.7109 ± 0.0043 | 0.756 ± 0.022 | 0.668 ± 0.012 | 0.74121 ± 0.00058 | 0.667 ± 0.018 | 0.675 ± 0.012 | 0.7313 ± 0.0043 | 0.71 ± 0.0074
SVVRCWVLLGVA | 0.121 ± 0.047 | 0.157 ± 0.028 | 0.198 ± 0.013 | 0.303 ± 0.0057 | 0.135 ± 0.0021 | 0.164 ± 0.026 | 0.2377 ± 0.0011 | 0.276 ± 0.024
SWELKWVYARVV | 0.374 ± 0.0097 | 0.5602 ± 0.0046 | 0.516 ± 0.02 | 0.674 ± 0.017 | 0.093 ± 0.0033 | 0.0851 ± 0.0075 | 0.0902 ± 0.0089 | 0.131 ± 0.005
SYALGNVVGGSL | 0.675 ± 0.045 | 0.75 ± 0.015 | 0.637 ± 0.018 | 0.748 ± 0.014 | 0.631 ± 0.025 | 0.645 ± 0.0065 | 0.721 ± 0.022 | 0.72 ± 0.013
TCPFTIHRLKVG | 0.63 ± 0.01 | 0.7483 ± 0.0035 | 0.617 ± 0.017 | 0.7458 ± 0.0033 | 0.118 ± 0.018 | 0.137 ± 0.028 | 0.218 ± 0.012 | 0.238 ± 0.077
TEHIIAFKASVN | 0.546 ± 0.0031 | 0.7284 ± 0.0037 | 0.626 ± 0.033 | 0.71 ± 0.01 | 0.0901 ± 0.025 | 0.104 ± 0.024 | 0.153 ± 0.028 | 0.214 ± 0.02
TFRVLFSVALLV | 0.172 ± 0.0042 | 0.216 ± 0.0069 | 0.259 ± 0.024 | 0.3436 ± 0.0022 | 0.1804 ± 0.00079 | 0.182 ± 0.021 | 0.2319 ± 0.0022 | 0.212 ± 0.086
TGRLFVSLRVWY | 0.321 ± 0.0046 | 0.375 ± 0.055 | 0.295 ± 0.035 | 0.467 ± 0.0072 | 0.302 ± 0.015 | 0.305 ± 0.006 | 0.442 ± 0.0058 | 0.437 ± 0.038
TLPIWLRVLIFG | 0.341 ± 0.066 | 0.342 ± 0.038 | 0.295 ± 0.026 | 0.456 ± 0.0082 | 0.2762 ± 0.002 | 0.29 ± 0.0033 | 0.426 ± 0.014 | 0.404 ± 0.032
TLRINSPFYFLS | 0.694 ± 0.058 | 0.703 ± 0.02 | 0.654 ± 0.019 | 0.7509 ± 0.0024 | 0.242 ± 0.011 | 0.282 ± 0.022 | 0.53 ± 0.021 | 0.419 ± 0.012
TLWWRQPFWGFG | 0.731 ± 0.038 | 0.802 ± 0.0045 | 0.659 ± 0.013 | 0.8 ± 0.021 | 0.673 ± 0.0095 | 0.702 ± 0.013 | 0.781 ± 0.017 | 0.722 ± 0.042
TSRRPFVLVMWL | 0.504 ± 0.0061 | 0.599 ± 0.0078 | 0.405 ± 0.04 | 0.6229 ± 0.0049 | 0.363 ± 0.011 | 0.388 ± 0.035 | 0.576 ± 0.027 | 0.485 ± 0.015
TTATLSFAICAV | 0.412 ± 0.01 | 0.455 ± 0.012 | 0.315 ± 0.022 | 0.473 ± 0.0063 | 0.27 ± 0.0051 | 0.325 ± 0.022 | 0.452 ± 0.014 | 0.4276 ± 0.0029
TYKHIVRVNKCE | 0.594 ± 0.031 | 0.684 ± 0.021 | 0.627 ± 0.033 | 0.727 ± 0.0073 | 0.179 ± 0.0066 | 0.184 ± 0.025 | 0.286 ± 0.0033 | 0.318 ± 0.04
TYSVIPSLALLP | 0.664 ± 0.03 | 0.727 ± 0.013 | 0.643 ± 0.014 | 0.7298 ± 0.0043 | 0.648 ± 0.012 | 0.652 ± 0.032 | 0.704 ± 0.022 | 0.224 ± 0.051
VAGGFWCWGMVG | 0.718 ± 0.034 | 0.782 ± 0.015 | 0.663 ± 0.0093 | 0.788 ± 0.013 | 0.392 ± 0.016 | 0.436 ± 0.024 | 0.677 ± 0.024 | 0.4642 ± 0.0023
VARWVYALGLLC | 0.581 ± 0.035 | 0.6488 ± 0.0027 | 0.545 ± 0.028 | 0.677 ± 0.025 | 0.2 ± 0.0064 | 0.221 ± 0.011 | 0.377 ± 0.013 | 0.312 ± 0.013

Sequence | protein stability index (Saccharomyces cerevisiae [1]; [3]) | protein stability index (Saccharomyces cerevisiae [1]; [4]) | protein stability index (Saccharomyces cerevisiae [1]; [5]) | protein stability index (Saccharomyces cerevisiae [1]; [6]) | protein stability index (Saccharomyces cerevisiae [1]; [7]) | protein stability index (Saccharomyces cerevisiae [1]; [8]) | protein stability index (Saccharomyces cerevisiae [1]; [9]) | protein stability index (Saccharomyces cerevisiae [2])
VCCSILFSAFLV | 0.614 ± 0.088 | 0.6552 ± 0.0051 | 0.532 ± 0.019 | 0.653 ± 0.001 | 0.4 ± 0.024 | 0.4 ± 0.012 | 0.549 ± 0.013 | 0.475 ± 0.041
VCDPWVFIRCLV | 0.418 ± 0.015 | 0.57354 ± 0.00022 | 0.418 ± 0.031 | 0.6025 ± 0.0034 | 0.11 ± 0.0075 | 0.118 ± 0.032 | 0.104 ± 0.018 | 0.234 ± 0.1
VCLVAGVFFCLL | 0.5 ± 0.018 | 0.587 ± 0.025 | 0.44 ± 0.018 | 0.638 ± 0.021 | 0.422 ± 0.017 | 0.449 ± 0.014 | 0.575 ± 0.013 | 0.629 ± 0.24
VCVAVCFVMCGG | 0.36 ± 0.022 | 0.457 ± 0.023 | 0.324 ± 0.023 | 0.499 ± 0.018 | 0.276 ± 0.0083 | 0.305 ± 0.0087 | 0.464 ± 0.03 | 0.3721 ± 0.0011
VCVWVDILAFCS | 0.0795 ± 0.016 | 0.245 ± 0.097 | 0.183 ± 0.026 | 0.278 ± 0.0048 | 0.147 ± 0.019 | 0.174 ± 0.019 | 0.252 ± 0.018 | 0.227 ± 0.05
VDVWRWRGLRVG | 0.635 ± 0.029 | 0.73743 ± 0.00065 | 0.61 ± 0.013 | 0.7528 ± 0.00093 | 0.3592 ± 0.0023 | 0.414 ± 0.031 | 0.599 ± 0.0082 | 0.555 ± 0.11
VFAWSLYLRWAW | 0.2813 ± 0.0012 | 0.287 ± 0.0065 | 0.362 ± 0.025 | 0.411 ± 0.011 | 0.481 ± 0.02 | 0.357 ± 0.017 | 0.384 ± 0.0076 | 0.489 ± 0.015
VFFFNALFCFFC | 0.523 ± 0.039 | 0.51 ± 0.0085 | 0.535 ± 0.02 | 0.562 ± 0.0091 | 0.31138 ± 0.00022 | 0.291 ± 0.011 | 0.356 ± 0.0075 | 0.35 ± 0.0075
VFFSLSLILFPF | 0.431 ± 0.037 | 0.5265 ± 0.0017 | 0.412 ± 0.022 | 0.525 ± 0.024 | 0.3557 ± 0.00081 | 0.402 ± 0.019 | 0.4897 ± 0.0017 | 0.419 ± 0.013
VFFVLAVVGADA | 0.383 ± 0.044 | 0.461 ± 0.024 | 0.331 ± 0.033 | 0.551 ± 0.018 | 0.268 ± 0.0086 | 0.306 ± 0.02 | 0.467 ± 0.053 | 0.397 ± 0.045
VFLFSLLIVFFP | 0.213 ± 0.0089 | 0.3 ± 0.0087 | 0.226 ± 0.029 | 0.385 ± 0.00051 | 0.1951 ± 0.0019 | 0.216 ± 0.028 | 0.3338 ± 0.0025 | 0.219 ± 0.075
VFLLLSLSVFFE | 0.0371 ± 0.0054 | 0.0844 ± 0.0086 | 0.138 ± 0.0083 | 0.225 ± 0.0081 | 0.109 ± 0.014 | 0.128 ± 0.043 | 0.142 ± 0.018 | 0.1721 ± 0.0014
VFSFGLLFQVCR | 0.598 ± 0.04 | 0.625 ± 0.025 | 0.435 ± 0.022 | 0.6144 ± 0.0034 | 0.4081 ± 0.0038 | 0.452 ± 0.025 | 0.631 ± 0.053 | 0.502 ± 0.019
VFSGVTTILVRT | 0.578 ± 0.05 | 0.517 ± 0.026 | 0.37 ± 0.035 | 0.576 ± 0.022 | 0.346 ± 0.0089 | 0.392 ± 0.018 | 0.538 ± 0.0096 | 0.539 ± 0.11
VFSLFLVLNYPF | 0.302 ± 0.046 | 0.296 ± 0.043 | 0.373 ± 0.021 | 0.495 ± 0.01 | 0.466 ± 0.021 | 0.362 ± 0.012 | 0.432 ± 0.025 | 0.446 ± 0.037
VGGLGWCWVCMA | 0.573 ± 0.041 | 0.718 ± 0.035 | 0.595 ± 0.017 | 0.75 ± 0.013 | 0.132 ± 0.01 | 0.158 ± 0.023 | 0.246 ± 0.0056 | 0.25 ± 0.016
VGIFKVCALVLR | 0.325 ± 0.019 | 0.296 ± 0.011 | 0.324 ± 0.027 | 0.4622 ± 0.003 | 0.399 ± 0.0062 | 0.335 ± 0.016 | 0.446 ± 0.011 | 0.483 ± 0.0098
VGVSCVVCVCGV | 0.493 ± 0.0071 | 0.471 ± 0.02 | 0.289 ± 0.034 | 0.514 ± 0.0077 | 0.2604 ± 0.0024 | 0.295 ± 0.017 | 0.4873 ± 0.0037 | 0.3704 ± 0.0011
VGVVVAIGLVRM | 0.508 ± 0.013 | 0.575 ± 0.032 | 0.381 ± 0.041 | 0.546 ± 0.0048 | 0.3423 ± 0.00054 | 0.377 ± 0.03 | 0.512 ± 0.019 | 0.4849 ± 0.0037
